Data set [1] in a line: folding stability dG unfold from trypsin proteolysis; higher = more stable. The method, boiled down:
(§1)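 How resistant each design was to proteolysis was captured as K50, inferred by Bayesian fitting of sequencing counts. Unfolding free energy was then derived relative to a sequence-predicted unfolded-state K50 and a shared folded-state K50, per protease or combined. Digestion used trypsin and chymotrypsin at 11 threefold-diluted concentrations plus a no-protease condition, on mini-proteins under 80 residues without cysteine in a PA-tagged cDNA display construct. Designs were kept only when AlphaFold2 dimer inter-PAE was above 15.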

A short description of data set [2]: folding stability dG unfold from chymotrypsin proteolysis; higher = more stable. The method, boiled down:
as §1

Data set [3] is described as follows: folding stability dG unfold (combined trypsin and chymotrypsin); higher = more stable. A digest of the protocol: as §1

Experimental findings from the supplement of paper PMC12764529 are described below.

± gives the half width of the 95% confidence interval.

Regarding “SAGGLEIEVFNEKGEPVEVRLRRKEDDTLELEVRFRDASGREYRARATVRVKETEIELGEVDEWEELESAGG [r13_451_TrMRF]”, the results for the “folding stability dG unfold” value in data set [1], in data set [2] and in data set [3] were 2.19 ± 0.09 kcal/mol, 1.84 ± 0.082 kcal/mol and 2.21 ± 0.26 kcal/mol, respectively.
The like results for “SAGGLENLENFELVETLTVKLPNGDKPVTLTLYRHPDGPAENVTSYEGKKYVFVVTDDSIEFFEGGTSAGGS [r16_711_TrMRF]” were, in that order, 0.0263 ± 0.044 kcal/mol, 1.24 ± 0.16 kcal/mol and 0.81 ± 0.15 kcal/mol.
The like results for “SAGGLGTDSTVPTLTLSVPVLVPTADGSPRELTVRVTIRAPVRLNPPTGELEIGDVEVSVEVFDPSLLSAGG [r13_312_TrMRF]” were, in that order, 3.03 ± 0.11 kcal/mol, 3.73 ± 0.11 kcal/mol and 3.37 ± 0.13 kcal/mol.
Taken in the same sequence, the figures for “SAGGLIEKLKELGFEIVSVEEREETLPNGKKVRTVKITVKLPNGELVKIEVRVLPNGEVIIKIEVKKPSAGG [r13_818_TrROS_Hall]” were 3.72 ± 0.15 kcal/mol, 3.17 ± 0.89 kcal/mol and 3.55 ± 0.27 kcal/mol.
As to “SAGGLKIPVGSAEDALKAFEAIEEPVLVRTKDRKFVRELKLEDIKELVEKGVEFEFVLPSELPEEERKESAG [r5_677_TrMRF]”, the entries for the “folding stability dG unfold” value in data set [1], in data set [2] and in data set [3] were 0.574 ± 0.07 kcal/mol, 0.573 ± 0.21 kcal/mol and 0.566 ± 0.39 kcal/mol, respectively.
Taken in the same sequence, the figures for “SAGGLLPALLAPGFRKPPELPLVVVEAPIEEAVALAKENPSLGVLLVRVGGKLYLIDPKTGKVAPLGSAGGS [r16_214_TrMRF]” were 0.767 ± 0.018 kcal/mol, 1.6 ± 0.033 kcal/mol and 1.32 ± 0.056 kcal/mol.
As to “SAGGLLVVLPPDLTPEELREKALELAELARKAGDFEVERIELVRDEETDRPYAVLVIRDPRTGKILVASAGG [r13_669_TrMRF]”, the “folding stability dG unfold” value in data set [1] worked out at 1.39 ± 0.014 kcal/mol; in data set [2], 1.05 ± 0.062 kcal/mol; in data set [3], 1.23 ± 0.042 kcal/mol.
As for “SAGGLNINLPPGQEIELTLQVTHLFNGGNGDFGSMTHTYEIPIKIKPIPPVPKPEVERDPDGNYKVEDSAGG [r13_401_TrROS]”, the “folding stability dG unfold” value in data set [1] was -0.0612 ± 0.076 kcal/mol; in data set [2] it was 0.358 ± 0.26 kcal/mol; in data set [3], 0.296 ± 0.28 kcal/mol.
Taken in the same sequence, the figures for “SAGGLPELLKALGLPVTSVRSVPVLLPGGRPALVTFVEFEDPEGERYRLVVVRLPNGEVLVRVERLDPSAGG [r13_818_TrMRF]” were 3.39 ± 0.15 kcal/mol, 4.9 ± 0.12 kcal/mol and 4.53 ± 0.1 kcal/mol.
Taken in the same sequence, the figures for “SAGGLPPEIKVEISFTPDPATGKWRGTVTAFDPVTGKTVTVPVTSDTPEELRARLEAAAAAVAAALASAGGS [r8_480_JUSTAS]” were 3.03 ± 0.098 kcal/mol, 4.36 ± 0.12 kcal/mol and 4.08 ± 0.14 kcal/mol.
Taken in the same sequence, the figures for “SAGGLTVTLTDSSGNPVTVETELLPDNTLVLTITRTTPSGKTYTRTGIVSIDNTTINLVSFSEWTEDPSAGG [r13_451_JUSTAS]” were 2.79 ± 0.097 kcal/mol, 3.25 ± 0.08 kcal/mol and 3.02 ± 0.16 kcal/mol.
In the case of “SAGGLTWEEAREIAEEIANMEVPSPNGMPMKVKVDIEIDPPNGYFRVDVKVEMPGKPQKFPLEIPLKSAGGS [r16_812_TrROS]”, the “folding stability dG unfold” value in data set [1] was 0.607 ± 0.16 kcal/mol; in data set [2], 0.536 ± 0.17 kcal/mol; in data set [3] it was 0.673 ± 0.25 kcal/mol.
Taken in the same sequence, the figures for “SAGGMAEEVAEAVRDFFESQGLPAEVEPLSVHPNNLVVYRFRVPGYYALVVADPDNPVVVVTVYPLPSAGGS [r8_157_TrMRF]” were 2.46 ± 0.13 kcal/mol, 3.45 ± 0.049 kcal/mol and 3.08 ± 0.14 kcal/mol.
Take “SAGGMAIKDVRVEGGVLYVYRGDKLVAKIEPGAAQPPVLVRFPDGTVVAVPRSVALALNPETLEFFDVSAGG [r13_802_TrMRF]”: the results for the “folding stability dG unfold” value in data set [1], in data set [2] and in data set [3] were 1.24 ± 0.032 kcal/mol, 1.44 ± 0.087 kcal/mol and 1.43 ± 0.043 kcal/mol, respectively.
The like results for “SAGGMEEIEPVTITITVVDEETGEKVEIKITVPKEEITRIEIKPDGTIRIYFKENNEVIEIKLEDIKSAGGS [r16_410_TrROS_Hall]” were, in that order, 2.99 ± 0.24 kcal/mol, 4.22 ± 0.19 kcal/mol and 4.16 ± 0.32 kcal/mol.
As to “SAGGMEFEFTREDGRKTRVELEVNPETGEVTEKIYVGGKLLYTFKDGELKYIPDEVAAARIEARLPPESAGG [r13_958_TrMRF]”, the “folding stability dG unfold” value is -0.0213 ± 0.12 kcal/mol in data set [1], 1.84 ± 0.079 kcal/mol in data set [2] and 1.45 ± 0.11 kcal/mol in data set [3].
The like results for “SAGGMEIKIEKEGNKIKITIKNENGEIEEFEITLKDGKKYRIIIDKDNPNTIYIVDEKTGKTIVLKASAGGS [r16_198_TrROS_Hall]” were, in that order, 4.6 ± 0.64 kcal/mol, 4.55 ± 0.11 kcal/mol and 4.71 ± 0.3 kcal/mol.
For the sequence “SAGGMEIVSSGSLEEAIALLKENPNTTITVTLPDGTTVVIKVTQNGEGPYIYDVSTEPPAAAPSPSLVSAGG [r13_56_JUSTAS]”, the “folding stability dG unfold” value in data set [1] was found to be 2.15 ± 0.096 kcal/mol; in data set [2], 1.1 ± 0.038 kcal/mol; in data set [3] it was 1.66 ± 0.079 kcal/mol.
